Laboratory results from the supplement of paper PMC10567573.
± gives the standard deviation.

Test: protein stability index of a GFP-peptide fusion (GPS, HEK-293T) (PSI 1-6); higher = more stable
Settings: c terminus: a fixed tail appended
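Further: 24-mer peptide tiles fused after GFP, lentivirally expressed, FACS-sorted into six equal bins by GFP/DsRed ratio, decoded by Illumina sequencing, PSI is the read-weighted mean bin number.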

Sequence	protein stability index (treatment: DMSO)	protein stability index (treatment: MLN4924 1 uM, 8 h)
EARGLRLSDLEDLEEEEEEEEEAE [IRX6]	5.55 ± 0.41	5.5 ± 0.39
EATNGREGLLRFSSWPFSIQDVVQ [AUP1]	2.93 ± 0.21	3.09 ± 0.37
ECGKAFSQNSSLVQHERIHTGDKP [ZNF8]	4.49 ± 0.33	4.48 ± 0.15
EDLLLPGACPGADEAGGGAEGDSW [WEE1]	5.53 ± 0.12	5.58 ± 0.22
EDTHVQIGQVHEEFKQNIENVSVE [FCHO1]	5.48 ± 0.27	5.49 ± 0.21
EDVARPTQRLWDFTQSGPIVSRAT [GALNT9]	3.99 ± 0.056	3.87 ± 0.33
EDVEDHYEMGEELGSGQFAIVRKC [DAPK3]	5.06 ± 0.099	5.3 ± 0.35
EDWDSALFAELGYFTDTDELQLEA [ATF6]	4.3 ± 0.21	4.65 ± 0.23
EDYPAALPNHKPKGTFKDYVRDRA [ETS1]	4.57 ± 0.1	4.62 ± 0.32
EEADFLSAETGSPRLTMHYPCLEK [IRX6]	4.49 ± 0.19	4.56 ± 0.065
EEAPAVTAGLKIFEPPAPGEGNSS [TNFSF13B]	5.33 ± 0.23	5.3 ± 0.14
EEDDGRGRGLLRWDSFSAWLHCVC [DENND6A]	3.06 ± 0.25	3.04 ± 0.29
EEDLVLTCEDDEDEELGGSSRVPV [ZBTB22]	5.67 ± 0.24	5.6 ± 0.21
EEEEEEEEAEAGEEAVPEEEGPTV [CHGA]	5.34 ± 0.25	5.4 ± 0.25
EEELIRIFQEQQKKWQQYRSVRRE [FAM9B]	3.92 ± 0.33	4.07 ± 0.49
EEENDYRNLDASPTYKGLLMSLQN [CEP70]	3.67 ± 0.18	3.63 ± 0.34
EEENPGGCEDEYLVNPTCQVLVKD [ZER1]	5.54 ± 0.22	5.54 ± 0.22
EEETQFYISETVLAIDAIHQLGFI [STK38L]	2.48 ± 0.51	2.58 ± 0.2
EEFNVLEMEVMRRQLYAVNRRLRA [FATE1]	2.92 ± 0.21	3.1 ± 0.5
EEGTSDSNTGSESNSATVEEPPTD [SMARCE1]	5.36 ± 0.44	5.67 ± 0.2
EEPVFEAVINWVKHAKKEREESLP [KLHL12]	4.16 ± 0.48	4.17 ± 0.28
EERATRLAELQEQLKAVHEQLAAL [BRD3]	4.59 ± 0.22	4.31 ± 0.062

Sequence	protein stability index (treatment: DMSO)	protein stability index (treatment: MLN4924 1 uM, 8 h)
EERNRFTETREEDVTDEHGEREPF [FAM9B]	5.62 ± 0.17	5.58 ± 0.12
EESRDPTLYANNVQRVMAQALGIP [LPCAT4]	3.71 ± 0.39	3.89 ± 0.33
EESRISVPVHSFASLNIKTTVPEV [PRPH]	4.05 ± 0.35	3.98 ± 0.39
EETHLEETTESQQNGEEGTSTPED [SMARCE1]	5.48 ± 0.29	5.63 ± 0.23
EFCEPAFVVGNCLQIASDSHQYDR [PCMTD1]	3.5 ± 0.49	3.51 ± 0.31
EGREAPALVAAGGAPEDDEEDDGR [DENND6A]	5.68 ± 0.29	5.72 ± 0.3
EGRPGAATFHVGGGPAQNAPHQQP [TFE3]	4.79 ± 0.17	4.8 ± 0.24
EHGEKIYFFCENDAEFLCVFCREG [TRIM15]	2.36 ± 0.082	2.53 ± 0.42
EHIADALRAIDFGTDEEEEEFIEE [TRIM63]	5.34 ± 0.2	5.36 ± 0.32
EICLWGRHIFMGYLESETETTEAI [ACSBG2]	2.55 ± 0.072	3.05 ± 0.29
EIFQKPFQTLMFLVRDWSFPYEYS [ATL3]	2.73 ± 0.56	3.52 ± 0.089
EILDYIFSGQIRLNEDTIQDVVQA [GAN]	2.67 ± 0.55	2.23 ± 0.34
EIPTGKKDHECSECGKTFIYNSHL [ZNF232]	3.7 ± 0.21	3.49 ± 0.28
EISGPLTSANKITLVSSGSGTMGA [FLOT1]	3.46 ± 0.046	3.5 ± 0.26
EKIQQDADSVITVGRGEVVTVRVP [ACBD3]	4.55 ± 0.16	4.63 ± 0.14
EKRAKRLSSAPSSRAEPIRTTVFQ [ZMAT5]	3.74 ± 0.54	3.86 ± 0.061
EKSGFSQHQNKSPPKVKAEDGMQC [DLC1]	5.19 ± 0.33	5.22 ± 0.13
EKTQDDLMKHQTNISELKRTFLET [EPB41L3]	4.18 ± 0.68	4.2 ± 0.31
ELAEIFRASGEHVTDEEIESLMKD [TNNC2]	5 ± 0.41	5.34 ± 0.33
ELDSSSSLCVLVSTVGKLCRLINE [CEP70]	3.73 ± 0.53	3.6 ± 0.35
ELTNGVINAAFMLLFKDLIKLFAC [SNAP91]	3.57 ± 0.5	3.14 ± 0.57
EMLAAACQMFLGKTEAEIAHIALE [FLOT1]	3.15 ± 0.81	2.78 ± 0.34

Sequence	protein stability index (treatment: DMSO)	protein stability index (treatment: MLN4924 1 uM, 8 h)
EMSKDALPEKACQLDSRYWRITNA [FBXO3]	3.55 ± 0.24	3.5 ± 0.16
ENHPDVFSDSSMDHFQKFLPTVGG [MYOZ1]	2.99 ± 0.5	3.34 ± 0.53
ENIEVKEGGLYFERRPVAQSTDGA [SPSB2]	4.55 ± 0.27	4.66 ± 0.18
ENIKGYYIIIVPLKKSRGKFIKPW [PTPRD]	2.67 ± 0.86	1.86 ± 0.45
ENVVHGHILAAEQLSRDSTLGGKA [NSDHL]	4.52 ± 0.11	4.6 ± 0.3
ENYHKLRRSSSKCIHDHHCGSQLS [NETO1]	3.1 ± 0.27	3.26 ± 0.4
EPLRSEILSGKFTILNVRDPTGAS [PTPN9]	3.65 ± 0.098	3.58 ± 0.16
EPSHSVKVHTVPKPGKGADLSKPP [ATE1]	4.96 ± 0.22	4.96 ± 0.27
EQRADPNAKAHCGATALHFAAEAG [FEM1B]	4.03 ± 0.18	3.98 ± 0.34
EQREWVLKSSILIAMAVYTYLRLI [INTS3]	2.6 ± 0.59	2.59 ± 0.45
ERCLHMFLQEEAIDRNYVPGKSLA [SNX12]	2.97 ± 0.31	3.05 ± 0.26
EREMAEIRDQMQQQLNDYEQLLDV [LMNB1]	5.15 ± 0.17	5.09 ± 0.19
ERFLELAPDFVGDILWEHLEQMIK [ETS2]	2.36 ± 0.58	2.89 ± 0.51
ERVEALGQFVMKTRRTLKGHGNKV [GNB5]	3.09 ± 0.7	3.52 ± 0.14
ERWLQKQGKYSGVGLLDHMVSIYL [RNF180]	2.3 ± 0.39	2.59 ± 0.28
ESKDYLSLYLLLVSCPKSEVRAKF [SPOPL]	2.92 ± 0.38	2.82 ± 0.63
ESKLLGSNSSRMYFTQTLLPGLAG [MLH1]	3.12 ± 0.24	3.12 ± 0.5
ESKTDGDDTETVPSEQSHASGKLR [TCF25]	5.54 ± 0.26	5.56 ± 0.4
ESNAAQYSPEALASIQNHVRKREA [EFHC1]	4.87 ± 0.24	4.7 ± 0.27
ESQKANQCAVLIYTSGTTGIPKGV [ACSBG2]	2.13 ± 0.26	2.52 ± 0.41
ETDSEMNSQESRSDLEDMEEEEGT [SMG5]	5.74 ± 0.16	5.69 ± 0.074
